Patent US20230257453A1 (published 2023)
Where a chain is given by its changes, count along the chain named. Where two headings read alike, the source gives them in different places.

T1: denatured human collagen type III (UniProt P02461 154-1221)
T1 chain: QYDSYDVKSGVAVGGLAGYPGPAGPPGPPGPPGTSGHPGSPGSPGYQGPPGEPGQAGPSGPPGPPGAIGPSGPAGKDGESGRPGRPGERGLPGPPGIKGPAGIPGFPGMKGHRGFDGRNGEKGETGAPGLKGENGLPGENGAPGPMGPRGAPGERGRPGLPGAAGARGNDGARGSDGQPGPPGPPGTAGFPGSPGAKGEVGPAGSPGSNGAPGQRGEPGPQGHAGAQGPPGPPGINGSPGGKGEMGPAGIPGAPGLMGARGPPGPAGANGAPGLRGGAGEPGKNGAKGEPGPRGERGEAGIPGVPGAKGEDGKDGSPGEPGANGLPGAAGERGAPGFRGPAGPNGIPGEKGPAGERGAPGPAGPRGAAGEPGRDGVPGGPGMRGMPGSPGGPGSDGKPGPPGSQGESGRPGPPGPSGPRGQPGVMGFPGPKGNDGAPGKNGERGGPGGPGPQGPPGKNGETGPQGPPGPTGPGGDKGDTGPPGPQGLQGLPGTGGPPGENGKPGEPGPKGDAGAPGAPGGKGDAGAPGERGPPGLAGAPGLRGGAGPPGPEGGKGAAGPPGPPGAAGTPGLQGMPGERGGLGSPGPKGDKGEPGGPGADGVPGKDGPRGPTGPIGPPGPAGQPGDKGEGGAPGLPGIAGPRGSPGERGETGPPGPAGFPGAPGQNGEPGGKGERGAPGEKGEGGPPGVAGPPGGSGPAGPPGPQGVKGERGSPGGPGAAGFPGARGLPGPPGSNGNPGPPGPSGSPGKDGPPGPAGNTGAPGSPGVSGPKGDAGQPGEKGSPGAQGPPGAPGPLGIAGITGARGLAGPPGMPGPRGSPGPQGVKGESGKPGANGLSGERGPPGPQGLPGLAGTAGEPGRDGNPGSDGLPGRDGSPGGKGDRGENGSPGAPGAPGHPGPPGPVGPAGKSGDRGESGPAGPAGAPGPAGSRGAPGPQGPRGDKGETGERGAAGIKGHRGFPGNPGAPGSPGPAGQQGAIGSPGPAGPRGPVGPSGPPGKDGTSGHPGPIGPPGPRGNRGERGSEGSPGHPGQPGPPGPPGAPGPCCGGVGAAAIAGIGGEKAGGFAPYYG

B1: P27122713 (antibody)
heavy: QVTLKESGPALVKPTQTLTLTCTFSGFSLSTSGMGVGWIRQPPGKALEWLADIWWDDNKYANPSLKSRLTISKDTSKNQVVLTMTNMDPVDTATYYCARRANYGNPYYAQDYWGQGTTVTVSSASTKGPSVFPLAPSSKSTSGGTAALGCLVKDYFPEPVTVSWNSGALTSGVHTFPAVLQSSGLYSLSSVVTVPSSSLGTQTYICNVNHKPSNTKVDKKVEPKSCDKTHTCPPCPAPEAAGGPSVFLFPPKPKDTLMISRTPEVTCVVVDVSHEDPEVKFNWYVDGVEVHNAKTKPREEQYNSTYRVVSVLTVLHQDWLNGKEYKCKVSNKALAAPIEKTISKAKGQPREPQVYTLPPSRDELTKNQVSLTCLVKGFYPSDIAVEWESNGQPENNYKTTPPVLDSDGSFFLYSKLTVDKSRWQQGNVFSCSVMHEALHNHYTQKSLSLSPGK
light: DIVMTQTPLSLPVTPGEPASISCRSSQSIVHSNGNTYLEWYLQKPGQSPQLLIYKVSNRFSGVPDRFSGSGSGTDFTLKISRVEAEDVGVYYCFQGSHVPWTFGQGTKVEIKRTVAAPSVFIFPPSDEQLKSGTASVVCLLNNFYPREAKVQWKVDNALQSGNSQESVTEQDSKDSTYSLSSTLTLSKADYEKHKVYACEVTHQGLSSPVTKSFNRGEC
B2: P27962716 (antibody)
chain 1: not shown
chain 2: B1 light with H31S, N33W
B3: P27152798 (antibody)
heavy: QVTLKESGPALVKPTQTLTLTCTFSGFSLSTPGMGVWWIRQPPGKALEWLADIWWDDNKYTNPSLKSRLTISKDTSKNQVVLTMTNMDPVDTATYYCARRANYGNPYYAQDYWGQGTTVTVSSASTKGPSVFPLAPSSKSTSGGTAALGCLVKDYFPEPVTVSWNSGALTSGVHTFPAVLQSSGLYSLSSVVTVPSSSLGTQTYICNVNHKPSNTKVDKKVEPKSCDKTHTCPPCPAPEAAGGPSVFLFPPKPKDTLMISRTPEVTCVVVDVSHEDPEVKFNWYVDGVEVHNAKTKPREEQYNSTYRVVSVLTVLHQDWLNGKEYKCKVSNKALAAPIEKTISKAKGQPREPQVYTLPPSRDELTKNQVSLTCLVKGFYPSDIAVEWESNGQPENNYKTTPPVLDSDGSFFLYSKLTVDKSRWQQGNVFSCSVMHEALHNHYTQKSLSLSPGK
light: B1 light with G34A
B4: P27152716 (antibody)
heavy: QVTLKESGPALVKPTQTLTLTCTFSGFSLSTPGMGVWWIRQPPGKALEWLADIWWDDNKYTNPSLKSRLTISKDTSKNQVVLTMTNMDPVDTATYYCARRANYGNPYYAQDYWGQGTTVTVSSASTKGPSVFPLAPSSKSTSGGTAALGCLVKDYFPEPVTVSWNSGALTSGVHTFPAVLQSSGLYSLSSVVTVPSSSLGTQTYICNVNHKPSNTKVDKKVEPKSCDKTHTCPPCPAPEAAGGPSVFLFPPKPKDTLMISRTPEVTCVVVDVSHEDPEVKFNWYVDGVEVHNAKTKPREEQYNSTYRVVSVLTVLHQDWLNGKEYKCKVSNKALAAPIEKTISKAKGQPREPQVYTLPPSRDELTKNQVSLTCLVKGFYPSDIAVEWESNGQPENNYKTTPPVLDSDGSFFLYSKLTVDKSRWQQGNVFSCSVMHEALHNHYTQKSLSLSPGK
light: B1 light with H31S, N33W

Legend:
Assay in all cases: ELISA
[1] = target: T2, denatured human collagen type IV (UniProt P02462 173-1669; P08572 184-1712)
[2] = target: T3, denatured human collagen type V (UniProt P20908 38-1605)
T3 sequence (P20908 38-1605): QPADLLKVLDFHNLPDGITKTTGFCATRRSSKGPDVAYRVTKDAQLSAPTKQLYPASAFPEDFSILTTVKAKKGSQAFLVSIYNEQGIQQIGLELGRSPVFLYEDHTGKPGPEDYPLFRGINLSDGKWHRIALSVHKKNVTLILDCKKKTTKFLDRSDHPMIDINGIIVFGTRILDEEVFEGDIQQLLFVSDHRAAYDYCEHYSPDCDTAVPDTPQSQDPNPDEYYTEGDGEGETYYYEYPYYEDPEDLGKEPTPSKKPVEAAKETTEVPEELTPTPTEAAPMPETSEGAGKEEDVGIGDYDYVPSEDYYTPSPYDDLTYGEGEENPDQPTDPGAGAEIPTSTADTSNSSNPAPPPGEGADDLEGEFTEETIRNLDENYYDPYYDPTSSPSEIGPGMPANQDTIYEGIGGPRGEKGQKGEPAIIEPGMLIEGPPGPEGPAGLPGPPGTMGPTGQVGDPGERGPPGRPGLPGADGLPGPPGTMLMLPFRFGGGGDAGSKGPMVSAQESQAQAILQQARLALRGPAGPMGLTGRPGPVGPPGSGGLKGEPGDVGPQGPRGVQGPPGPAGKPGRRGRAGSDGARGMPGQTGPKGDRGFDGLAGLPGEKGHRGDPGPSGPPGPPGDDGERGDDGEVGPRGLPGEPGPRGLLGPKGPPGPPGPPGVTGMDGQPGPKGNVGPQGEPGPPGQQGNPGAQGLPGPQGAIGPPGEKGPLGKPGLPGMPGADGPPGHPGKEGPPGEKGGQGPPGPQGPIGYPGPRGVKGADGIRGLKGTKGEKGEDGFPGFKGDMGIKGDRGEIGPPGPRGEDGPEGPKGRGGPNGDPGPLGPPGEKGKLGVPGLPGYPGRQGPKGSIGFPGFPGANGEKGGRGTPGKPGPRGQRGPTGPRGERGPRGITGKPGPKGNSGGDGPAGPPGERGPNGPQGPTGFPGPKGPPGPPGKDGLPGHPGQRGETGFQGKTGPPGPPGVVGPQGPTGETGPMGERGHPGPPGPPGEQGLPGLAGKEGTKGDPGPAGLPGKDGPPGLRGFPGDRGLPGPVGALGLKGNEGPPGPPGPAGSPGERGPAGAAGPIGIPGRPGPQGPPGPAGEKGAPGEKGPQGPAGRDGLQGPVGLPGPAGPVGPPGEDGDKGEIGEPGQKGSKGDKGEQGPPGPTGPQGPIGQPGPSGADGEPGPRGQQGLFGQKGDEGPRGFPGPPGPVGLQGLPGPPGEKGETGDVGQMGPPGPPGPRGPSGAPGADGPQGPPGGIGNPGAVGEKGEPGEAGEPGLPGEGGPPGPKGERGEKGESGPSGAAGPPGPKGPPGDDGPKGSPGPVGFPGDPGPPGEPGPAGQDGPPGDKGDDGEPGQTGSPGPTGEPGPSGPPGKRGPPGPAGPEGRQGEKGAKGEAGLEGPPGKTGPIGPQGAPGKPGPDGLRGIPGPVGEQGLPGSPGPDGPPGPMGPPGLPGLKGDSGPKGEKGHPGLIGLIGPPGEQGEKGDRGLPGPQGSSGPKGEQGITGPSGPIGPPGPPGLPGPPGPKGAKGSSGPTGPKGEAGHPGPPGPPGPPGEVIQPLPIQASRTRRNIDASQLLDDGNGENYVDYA

[3] = target: denatured mouse collagen IV (mouse, UniProt P02463 28-1669; P08122 26-1707)
[4] = target: T1, denatured human collagen type III
[5] = target: denatured human collagen I (UniProt P02452 162-1218; P08123 80-1119)
Sequence of denatured human collagen I (P02452 162-1218 A1075T, chain 1 of 2): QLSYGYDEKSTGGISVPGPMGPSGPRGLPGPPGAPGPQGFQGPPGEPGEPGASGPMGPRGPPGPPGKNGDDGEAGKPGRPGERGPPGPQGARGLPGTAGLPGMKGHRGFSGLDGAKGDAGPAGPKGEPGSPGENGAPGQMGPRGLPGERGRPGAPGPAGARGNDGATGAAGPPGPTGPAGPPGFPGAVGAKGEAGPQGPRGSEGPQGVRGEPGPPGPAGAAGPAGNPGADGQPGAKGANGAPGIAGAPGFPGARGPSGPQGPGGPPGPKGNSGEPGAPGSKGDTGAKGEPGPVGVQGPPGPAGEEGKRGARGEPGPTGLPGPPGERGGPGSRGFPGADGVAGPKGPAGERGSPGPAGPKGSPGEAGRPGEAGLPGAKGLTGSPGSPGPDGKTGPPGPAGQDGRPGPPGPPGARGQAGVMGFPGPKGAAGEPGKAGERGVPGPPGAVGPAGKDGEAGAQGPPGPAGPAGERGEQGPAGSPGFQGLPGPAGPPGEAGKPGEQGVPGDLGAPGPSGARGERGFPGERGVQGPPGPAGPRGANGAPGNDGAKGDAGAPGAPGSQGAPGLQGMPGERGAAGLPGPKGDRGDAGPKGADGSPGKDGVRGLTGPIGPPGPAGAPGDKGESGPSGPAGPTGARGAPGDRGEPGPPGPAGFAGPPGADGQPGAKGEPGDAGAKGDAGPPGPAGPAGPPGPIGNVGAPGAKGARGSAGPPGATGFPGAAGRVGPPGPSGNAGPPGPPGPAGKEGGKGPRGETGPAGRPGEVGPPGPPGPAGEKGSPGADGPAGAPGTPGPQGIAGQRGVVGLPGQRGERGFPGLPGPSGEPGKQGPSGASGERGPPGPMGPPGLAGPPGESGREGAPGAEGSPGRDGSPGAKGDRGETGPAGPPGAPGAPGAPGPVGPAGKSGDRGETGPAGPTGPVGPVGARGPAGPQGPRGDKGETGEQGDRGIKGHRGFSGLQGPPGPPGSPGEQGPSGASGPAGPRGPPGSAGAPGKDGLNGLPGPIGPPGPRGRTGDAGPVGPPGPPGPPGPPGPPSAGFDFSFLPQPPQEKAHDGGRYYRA
Sequence of denatured human collagen I (P08123 80-1119, chain 2 of 2): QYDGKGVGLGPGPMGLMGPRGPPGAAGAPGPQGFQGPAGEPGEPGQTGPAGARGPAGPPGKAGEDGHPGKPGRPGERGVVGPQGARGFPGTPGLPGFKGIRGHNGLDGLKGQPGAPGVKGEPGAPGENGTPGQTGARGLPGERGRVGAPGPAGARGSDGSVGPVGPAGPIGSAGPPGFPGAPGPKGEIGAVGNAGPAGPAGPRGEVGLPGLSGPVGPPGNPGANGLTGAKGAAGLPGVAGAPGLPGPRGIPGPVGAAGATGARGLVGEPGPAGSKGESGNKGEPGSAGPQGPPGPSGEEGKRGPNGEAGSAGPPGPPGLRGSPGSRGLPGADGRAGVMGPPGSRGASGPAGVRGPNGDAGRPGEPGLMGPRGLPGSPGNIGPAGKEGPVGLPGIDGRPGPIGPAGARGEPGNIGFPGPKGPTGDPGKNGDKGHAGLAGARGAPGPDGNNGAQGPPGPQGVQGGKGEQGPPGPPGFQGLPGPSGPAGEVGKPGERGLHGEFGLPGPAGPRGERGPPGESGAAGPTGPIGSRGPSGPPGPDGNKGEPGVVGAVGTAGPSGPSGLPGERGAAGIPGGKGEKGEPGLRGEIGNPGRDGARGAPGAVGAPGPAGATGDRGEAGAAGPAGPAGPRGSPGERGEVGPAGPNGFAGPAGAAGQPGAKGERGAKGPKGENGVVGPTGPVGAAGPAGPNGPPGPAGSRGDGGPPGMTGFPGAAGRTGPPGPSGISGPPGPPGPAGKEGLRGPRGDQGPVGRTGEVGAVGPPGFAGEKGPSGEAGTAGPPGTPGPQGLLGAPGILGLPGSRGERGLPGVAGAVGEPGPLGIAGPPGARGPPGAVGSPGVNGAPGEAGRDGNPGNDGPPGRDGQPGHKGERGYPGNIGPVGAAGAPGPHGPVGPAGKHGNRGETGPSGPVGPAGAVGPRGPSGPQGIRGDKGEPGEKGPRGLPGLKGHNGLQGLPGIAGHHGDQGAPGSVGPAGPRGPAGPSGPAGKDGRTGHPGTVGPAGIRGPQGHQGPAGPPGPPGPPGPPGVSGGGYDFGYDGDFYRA

[6] = target: T3, denatured human collagen type V; remark: listed apart in the source
[7] = target: T1, denatured human collagen type III
[8] = target: T2, denatured human collagen type IV; remark: listed apart in the source
[9] = target: T2, denatured human collagen type IV; remark: listed apart in the source
[10] = target: denatured mouse collagen I (mouse, UniProt P11087 152-1207; Q01149 86-1125)

Binder | EC50 [1] | EC50 [2] | EC50 [3] | EC50 [4] | EC50 [5] | EC50 [6] | EC50 [7] | EC50 [8] | EC50 [9] | EC50 [10]
B1 | 10.4 nM | ~259 nM | 487 nM | 32.9 nM | 59.7 nM |  |  |  |  | 
B2 |  |  |  |  |  | 3.31 nM | 3.94 nM | 18.6 nM |  | 
B3 |  | 86.2 nM | 197 nM | 59.6 nM | 76.3 nM |  |  |  | 9.97 nM | 
B4 | 1.37 nM | 15.2 nM | 229 nM | 9.63 nM | 2.12 nM |  |  |  |  | 10.2 nM
